Laboratory results published in article PMC7943553, “Naturally acquired blocking human monoclonal antibodies to Plasmodiumvivax reticulocyte binding protein 2b” (Nature Communications, 2021).
Substitutions are numbered along the chain they refer to.

B1: P. vivax Reticulocyte Binding Protein 2b, residues 161–1454 (domain or fragment, P. vivax strain Salvador I, UniProt A5K736 161-1454, looked up)
chain: PSPESTQITNTTDNIDYFDISDESNYYLISQLRPHFSNIYFFDEFKRYASYHTEIKRYEDIHKTKVNSLLNEASRAIGICNRAKNTVKGLINILENPQKFKTQRESYDVKLRQYEEKKEAFRGCLLNKNRKNLDQIKKINNEIRDLLEKLKCSQDCQTNVYFDMIKIYLVDFKKMPYENYDTFIKQYKNSYLSGVDMIRKIEKQIDNPVTINAIKFTQKEMGYIIDRFEYHLQKVKHSIDQVTALSDGVKPKQVTKNRLKEYYFNIGNYYSIFKFGKDSLNMLNKALIHKEKIVHNLLGELFGHLEERISKLIDSEYFITESNNIISQSEETLKLAEDVYDKNTKLIEDLTLYPHLEINEFKKDYDNNVEDLRESIIYIQSYVSSIKSAYRYNVLEKDSVESKQKNIPANSNAQKKVDELLSIIDSISYSNFSVAENFQKMKDYYKEIEKLKIKILQLIEAIKKYQQHVEELINKEKAVAILKEDINKIIEYIKGIIEKLKQLISANKDFDKIFQQVEQLINEALFNKDQFEHNKNDLHTKMKEIMHTFHERDLQQFLDNMSKFLKDQEASYQNADSKEKLDQLLTTVKAKQDELKEMKCDDIPDIIDNLKKESQNVLNLKDEVINKQFENMRTEMSSSLDQMTKEYNALKSSIEEYEAEKKGIENHKQNIIKRKNTFIVAEHENDEDVPEGKNTYNEFISNKDTILQKESAISNQMNTLEEKKRNRKTTLQTYGDAIQKLETYTEKKDEETKVLLDKFNTEVENFKLDEDEKSFNDAKSIVSNTINEVENENKNIDSIKKVNIAMKRSRSNQQSVEQLIRNKDNLLKEKMEKHFQKINTDEIIGQSAKANLLNNLESEKAIINEQLNDAHLNDLKLQIEKTLSYCEKSRENIKGNNGTHPEELNASEIEWEATKGKIETLNSNYQALNKNMDDIINKQHDEMIVLIDRDIKEKGKDIELKVEQRIQALEKMKAKLSSFDTNEDVKKYQSDINKEELIKLKEMSTAVLNKIDQNKNQLINVKTKSSGYVAESNGIKNKQTEPSQEKDKQIVYNTNRGDIEKVYKNIRDMYNELDDVEKEETTSNEVDNIEMQYDRLLINLLVQKINEENTKAKGLMEEIKSYIENIESVQAKMSDETREGATEFEFNQYQQSSLANDKKITEIVQHAINKKGEAERSKKTNEVKSIKNDVNTYMQQVIDEYNAMQKALGDIKNVNDLLISTSGRRIAEEISKSTNEAENFEKQAKGELGKINDIIEKMENQMVQAKEHENKIHINLEDKQIDEEVQKIRQIHEE
modifications: DyLight 488 (NHS ester) in the FRET assay; biotin (BirA site) in the competition ELISA between human mAbs
notes: PvRBP2b, P. vivax strain Salvador I, PlasmoDB PVX_094255 (total length 2806 amino acids), residues 161-1454; also called PvRBP2b_(161–1454); PvRBP2b; source: recombinant; expressed and purified in a similar manner as PvRBP2b161–470 (E. coli SHuffle T7; HisTrap, Q-Sepharose, size exclusion) or as previously described
B2: PvRBP2b human mAb 258259 (antibody, V domains shown)
VH: EVQLLESGGGLVRPGGSQRLSCAASGFTFTPYAMTWVRQAPGKGLEWLSTISGSGGSTYYADSVKGRFTISRDNSKNMLYLQMNSLTAEDTALYYCTKDKDEYTFGHNAFDVWGQGTMVTVSS
VL: SYELTQAPSVSVAPGQTARITCGGDNIGRKTVNWYQQKPGQAPVLVIYYDNDRPSGIPERFSGSNSGNMATLSISRVEVGDEADYYCQVWDSNNDHPVFGGGTKLTVV
notes: variable region as the Fab heavy chain in PDB 6WTV; cloned into a human IgG1 backbone, full-length antibody; lambda light chain; as the Fab light chain in PDB 6WTV; IgG1; same clonal group as 273264; source: Expi293 HEK cells, transfected, purified (Protein A, gel filtration)
B3: PvRBP2b human mAb 273264 (antibody, V domains shown)
VH: B2 VH with Y59S, M78I, N84D, T87R, Q115R
VL: B2 VL with K30T, T31S, N33H, Y48F
notes: variable region as the Fab heavy chain in PDB 6WTU; cloned into a human IgG1 backbone, full-length antibody; lambda light chain; as the Fab light chain in PDB 6WTU; IgG1; same clonal group as 258259; source: Expi293 HEK cells, transfected, purified (Protein A, gel filtration)
B4: PvRBP2b human mAb 253245 (antibody, V domains shown)
VH: EVQLVQSGAEVKKPGSSMKVSCKASGGTFNRYVFSWVRQAPGQGLEWMGGILPILETTYYAKNFKGRVTITADESTSTVYMELSSLTSEDTAVYFCARDEHDYVWGSYRPSLTGPWGQGTLVTVSS
VL: QSALTQPPSTSGSPGQSVTISCTGTGIDVGGFSYVSWFQYHPGKAPKLIIFEVTKRPSGVPDRFSGSKSGNTASLTISGLQADDEAEYYCSSYAVNNNFVFGTGTKVTVL
notes: variable region as the Fab heavy chain in PDB 6WTY; cloned into a human IgG1 backbone, full-length antibody; lambda light chain; as the Fab light chain in PDB 6WTY; IgG1; source: Expi293 HEK cells, transfected, purified (Protein A, gel filtration)
B5: PvRBP2b human mAb 241242 (antibody, V domains shown)
VH: EVQLLESGGGLVQPGGSLRLSCAVSGFTFRNYALSWVRQAPGKGLDWVSTISASGGATYYADSVKGHFTISRDNSKNILYLDMKSLRAEDTAIYYCARDGGSYTPYFFLDSWGQGALVTVSS
VL: SYELTQPASVSVAPGQTAQITCGGNSIGRKSIHWYQHKPGQAPVLVISYDSDRPSGIPERFSGSNSGNTATLTISKVEAGDEADFYCQVRDSDNDHVVFGGGTKLTVL
notes: variable region as the Fab heavy chain in PDB 6WN1; cloned into a human IgG1 backbone, full-length antibody; lambda light chain; as the Fab light chain in PDB 6WN1; IgG1; also called 241424 [sic]; source: Expi293 HEK cells, transfected, purified (Protein A, gel filtration)
B6: PvRBP2b human mAb 283284 (antibody, V domains shown)
VH: QVQLQQWGAGLLKPSETLALTCTVYGGSSSGYYWNWIRQSPGKGLEWIGEISDSGSTIYNPSLESRVTMSVDTSKNQFSLKLTSVTAADTAVYYCAKAILTRYNWLDPWSQGTLVTVSS
VL: DIVMTQSPSSLSASVGDRISISCRASQGVNSALAWYQQKPGKAPKLLIYDASTLESGVPSRFSGSGSGTDFALTINSLQPEDFATYYCQQFNSYPLTFGGGTKVEIK
notes: variable region as the Fab heavy chain in PDB 6WQO; cloned into a human IgG1 backbone, full-length antibody; kappa light chain; as the Fab light chain in PDB 6WQO; IgG1; source: Expi293 HEK cells, transfected, purified (Protein A, gel filtration)
B7: PvRBP2b human mAb 243244 (antibody, V domains shown)
VH: QVQLVESGGGVVQSGKSLRVSCAASGFTFSSYGMHWVRQAPGKGLEWVAFISYDGDNKYSADSVKGRLTISRDNSKNTLYLQMNSLRPEDTAVYYCAKESNYGENAFDIWGQGTMVTVSS
VL: QSALTQPRSVSGSPGQSVTISCTGTSSDVGFYNFVSWYQHHPGKAPKLIIYDVSERPSGVPDRFSGSKSGNTASLSISGLQPEDEADYYCCSYAGTYTFVFGSGTKVTVL
notes: variable region as the Fab heavy chain in PDB 6WNO; cloned into a human IgG1 backbone, full-length antibody; lambda light chain; as the Fab light chain in PDB 6WNO; IgG1; same clonal group as 237235; source: Expi293 HEK cells, transfected, purified (Protein A, gel filtration)
B8: PvRBP2b human mAb 237235 (antibody, V domains shown)
VH: QVQLVESGGGVVQPGRSLRLSCAASGFMFNSYGMHWVRQAPGKGLEWMAFISYDGSDDYYGDSVKGRITISRDNSKNTLFLHINSLRTEDTAVYYCAKESNYGENAFDVWGHGTMVTVSS
VL: B7 VL with S27N, I49M, S54T, S76T, P82A, D87E, S103H
notes: variable region as the Fab heavy chain in PDB 6WM9; cloned into a human IgG1 backbone, full-length antibody; lambda light chain; as the Fab light chain in PDB 6WM9; IgG1; same clonal group as 243244; source: Expi293 HEK cells, transfected, purified (Protein A, gel filtration)
B9: PvRBP2b human mAb 251249 (antibody, V domains shown)
VH: EVQLVESGGGLVKPGGSLRLSCEASGFLFSSYSMNWVRQAPGKGLEWVSSITGYSSEVFYTDSVKGRFTVSRDNSKNSLYLQMDSLRAEDTAVYYCARALTIFGVVITDYWFFDLWGRGTLVTVSS
VL: EIVLTQSPATLSLSPGDRATLSCRASQSVTTFLAWYQQKPGQAPRLLIYDVSNRATGIPARFSGSGSGTDFTLTISSLEPEDFAVYYCQQRSNWGLTFGGGTKVEIK
notes: variable region as the Fab heavy chain in PDB 6WOZ; cloned into a human IgG1 backbone, full-length antibody; kappa light chain; as the Fab light chain in PDB 6WOZ; IgG1; source: Expi293 HEK cells, transfected, purified (Protein A, gel filtration)

Each binder was assayed against T1, human Transferrin receptor 1 – Transferrin (human, UniProt P02786 121-760; P02787 20-698, DyLight 594 (NHS ester) in the FRET assay) (assay: FRET or BRET; PvRBP2b161–1454-DL488, TfR1-DL594 and Tf at 1:1:1 molar ratio, 5-fold excess of human mAbs; 50 mM Tris-HCl pH 6.8, 150 mM NaCl, 0.01% BSA). Conditions: both partners purified.
T1 construct: soluble ectodomain of human transferrin receptor 1, residues 121-760; follows the GP67 leader peptide, a 6xHis-tag and a factor Xa site; transferrin purified from human serum (apo-transferrin), loaded with iron to holo-transferrin; TfR1 and Tf were mixed with PvRBP2b in equal amounts in the assays; also called TfR1–Tf; TfR1 and Tf; copies: 2 + 2
T1 sequence (P02786 121-760, chain 1 of 2): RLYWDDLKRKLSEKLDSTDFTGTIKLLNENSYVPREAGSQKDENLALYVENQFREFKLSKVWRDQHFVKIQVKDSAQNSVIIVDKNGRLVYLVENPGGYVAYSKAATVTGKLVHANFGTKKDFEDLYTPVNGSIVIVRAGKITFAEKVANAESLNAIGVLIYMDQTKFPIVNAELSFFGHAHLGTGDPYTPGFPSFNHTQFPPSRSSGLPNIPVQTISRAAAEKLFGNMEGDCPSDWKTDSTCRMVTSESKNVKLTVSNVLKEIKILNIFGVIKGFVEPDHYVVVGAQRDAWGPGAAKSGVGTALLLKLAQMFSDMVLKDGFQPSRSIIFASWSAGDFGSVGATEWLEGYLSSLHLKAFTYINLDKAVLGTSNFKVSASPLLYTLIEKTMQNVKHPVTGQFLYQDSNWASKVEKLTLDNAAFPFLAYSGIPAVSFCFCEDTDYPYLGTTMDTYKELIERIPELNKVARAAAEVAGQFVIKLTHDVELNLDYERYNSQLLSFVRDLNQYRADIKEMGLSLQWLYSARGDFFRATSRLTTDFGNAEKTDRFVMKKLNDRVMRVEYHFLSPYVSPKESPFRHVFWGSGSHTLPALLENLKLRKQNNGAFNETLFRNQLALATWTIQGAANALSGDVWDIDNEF
T1 sequence (P02787 20-698, chain 2 of 2): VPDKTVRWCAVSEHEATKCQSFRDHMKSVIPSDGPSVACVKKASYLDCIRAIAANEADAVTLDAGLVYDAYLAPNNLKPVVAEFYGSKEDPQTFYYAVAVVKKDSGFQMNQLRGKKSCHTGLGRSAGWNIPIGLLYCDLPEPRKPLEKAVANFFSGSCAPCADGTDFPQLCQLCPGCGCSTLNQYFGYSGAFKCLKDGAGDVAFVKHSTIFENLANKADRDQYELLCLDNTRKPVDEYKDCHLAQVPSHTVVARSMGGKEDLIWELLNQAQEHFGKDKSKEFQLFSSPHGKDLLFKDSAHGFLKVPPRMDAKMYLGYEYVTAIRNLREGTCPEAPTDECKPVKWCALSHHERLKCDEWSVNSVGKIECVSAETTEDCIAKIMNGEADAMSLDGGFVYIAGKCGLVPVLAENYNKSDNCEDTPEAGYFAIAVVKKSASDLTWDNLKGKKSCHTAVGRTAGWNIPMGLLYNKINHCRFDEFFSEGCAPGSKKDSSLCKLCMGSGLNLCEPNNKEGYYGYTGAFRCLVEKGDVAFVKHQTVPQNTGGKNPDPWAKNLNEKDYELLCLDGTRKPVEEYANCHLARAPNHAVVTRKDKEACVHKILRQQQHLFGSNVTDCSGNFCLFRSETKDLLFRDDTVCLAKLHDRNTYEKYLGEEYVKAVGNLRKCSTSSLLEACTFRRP

Does B1 bind?
Result: binds

The binders below were run against T2, P. vivax Reticulocyte Binding Protein 2b, residues 161–1454 (P. vivax strain Salvador I, UniProt A5K736, DyLight 488 (NHS ester) in the FRET assay; biotin (BirA site) in the competition ELISA between human mAbs) in the same assay as above. Conditions: both partners purified.
T2 construct: PvRBP2b, P. vivax strain Salvador I, PlasmoDB PVX_094255 (total length 2806 amino acids), residues 161-1454; also called PvRBP2b_(161–1454); PvRBP2b; source: recombinant; expressed and purified in a similar manner as PvRBP2b161–470 (E. coli SHuffle T7; HisTrap, Q-Sepharose, size exclusion) or as previously described

B2 was tested. Which “percent decrease in FRET signal of PvRBP2b161–1454 with TfR1–Tf” value (shortened to “percent decrease in FRET signal”) did it give?
The value was over 70%.

For B3, which “percent decrease in FRET signal” value is on record?
The value was over 70%.

With B4 as the binder, how does the “percent decrease in FRET signal” value read?
The value was over 70%.

How did the “percent decrease in FRET signal” value turn out when B5 was run?
Its value is over 70%.

What follows are binders tested against T2, P. vivax Reticulocyte Binding Protein … (assay: ELISA; plates coated with 65 nM recombinant protein in PBS at 4 °C overnight; human mAbs at 1 μg/mL, 1 h room temperature; HRP anti-human secondary; specificity panel and PvRBP2b fragments). Conditions: both partners purified.

Which “fold signal over control mAbs 099100 and 043038” value (“fold signal” below) does the source give for B2 here?
Its value is over 20 fold.

How did the “fold signal” value turn out when B3 was run?
The value was over 20 fold.

B6 was tested. Which “fold signal” value did it give?
Its value is over 20 fold.

B4 was tested. Which “fold signal” value did it give?
Its value is over 20 fold.

B5 was tested. Which “fold signal” value did it give?
Its value is over 20 fold.

B7 was tested. Which “fold signal” value did it give?
The value was over 20 fold.

With B8 as the binder, how does the “fold signal” value read?
The value was over 20 fold.

For B9, which “fold signal” value is on record?
Its value is over 20 fold.

The binders below were run against T2, P. vivax Reticulocyte Binding Protein … (assay: flow cytometry on cells; PvRBP2b161–1454 at 4 μg/mL with human mAbs at 5-fold molar excess and reticulocytes, 1 h room temperature; inhibition relative to no mAb). Conditions: both partners purified.

Which “percent inhibition of PvRBP2b161–1454 binding to reticulocytes” value (from here on “percent inhibition”) does the source give for B2 here?
The value was over 98%.

How did the “percent inhibition” value turn out when B3 was run?
Its value is over 98%.

With B4 as the binder, how does the “percent inhibition” value read?
The value was over 98%.

B5 was tested. Which “percent inhibition” value did it give?
The value was over 98%.

With B7 as the binder, how does the “percent inhibition” value read?
Its value is 43%.

With B8 as the binder, how does the “percent inhibition” value read?
Its value is 47%.

B9 was tested. Which “percent inhibition” value did it give?
Its value is 59%.

These binders were tested against T2, P. vivax Reticulocyte Binding Protein … (assay: ELISA; avidity ELISA: plates coated with 50 ng PvRBP2b161–1454; human mAbs at 0.2 µg/mL; then PBS, 0.5, 1 or 2 M NH4SCN for 20 min; binding relative to no NH4SCN). Conditions: both partners purified.

B2 was tested. Which “percent binding left at 1 M NH4SCN” value did it give?
Its value is under 75%.

With B3 as the binder, how does the “percent binding left at 1 M NH4SCN” value read?
Its value is under 75%.

With B6 as the binder, how does the “percent binding left at 1 M NH4SCN” value read?
Its value is under 75%.

How did the “percent binding left at 1 M NH4SCN” value turn out when B4 was run?
The value was over 75%.

And the “percent binding left at 2 M NH4SCN” value?
The value was under 75%.

B5 was tested. Which “percent binding left at 1 M NH4SCN” value did it give?
Its value is over 75%.

And the “percent binding left at 2 M NH4SCN” value?
The value was under 75%.

How did the “percent binding left at 2 M NH4SCN” value turn out when B7 was run?
Its value is over 75%.

With B8 as the binder, how does the “percent binding left at 2 M NH4SCN” value read?
Its value is over 75%.

B9 was tested. Which “percent binding left at 1 M NH4SCN” value did it give?
The value was under 75%.
